The values that follow are results of earlier work, collected in paper PMC12378658.

One may read the Kd as the concentration at which binding is half-saturated.

Series [1] addresses TSLPR (Homo sapiens) (UniProt Q9HC73).
For series [2], the target named is TSLP:TSLPR complex (Homo sapiens) (UniProt Q969D9).

Sequence of UniProt Q9HC73 (Q9HC73 23-231): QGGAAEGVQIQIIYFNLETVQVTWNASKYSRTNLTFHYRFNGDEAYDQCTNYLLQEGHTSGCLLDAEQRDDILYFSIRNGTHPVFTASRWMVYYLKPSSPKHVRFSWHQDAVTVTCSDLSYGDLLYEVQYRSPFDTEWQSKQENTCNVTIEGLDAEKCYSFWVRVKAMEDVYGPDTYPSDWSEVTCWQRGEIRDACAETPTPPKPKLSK

As to TSLP (from UniProt Q969D9), the Kd in series [1] is 32 nM. As to IL-7Rα (from UniProt P16871), the dissociation constant (Kd) in series [2] was 29 nM.
